± gives the uncertainty stated by the source.
B1: Intersectin-2, residues 1129 to 1183; numbered along this chain, Q9NZM3 (parent)
chain: VCQVIAMYDYAANNEDELSFSKGQLINVMNKDDPDWWQGEINGVTGLFPSNYVKM

Variants of: B1
Assay: abundance fitness (aPCA) (normalised: wild type 0, dead -1); higher = more abundant; growth selection in yeast, the domain comes from the species named
Conditions: Homo sapiens

Abundance fitness, by site and new letter:
D16: W -0.117 ± 0.038 | R 0.001 ± 0.038 | T -0.126 ± 0.055 | P -0.075 ± 0.058 | F -0.04 ± 0.033 | S -0.004 ± 0.033 | Y 0.047 ± 0.066 | V -0.082 ± 0.044 | H -0.101 ± 0.057 | G -0.02 ± 0.033 | E -0.011 ± 0.057 | I 0.109 ± 0.061 | L -0.034 ± 0.044 | C -0.014 ± 0.057 | N -0.068 ± 0.065 | Q -0.044 ± 0.039
A6: P -0.585 ± 0.068 | Q -0.966 ± 0.097 | V -0.576 ± 0.048 | Y -0.927 ± 0.19 | S -0.057 ± 0.033 | T 0.026 ± 0.047 | N -0.928 ± 0.14 | R -0.883 ± 0.056 | W -1.02 ± 0.17 | L -1.02 ± 0.073
Y8: V -0.045 ± 0.036 | D -0.197 ± 0.065 | M -0.011 ± 0.05 | C -0.011 ± 0.057 | F 0.09 ± 0.063 | W -0.052 ± 0.05 | R 0.012 ± 0.033 | G -0.063 ± 0.038 | N 0.011 ± 0.047 | T -0.122 ± 0.053 | A -0.002 ± 0.037 | L -0.005 ± 0.04 | S 0.001 ± 0.036 | P -0.787 ± 0.14 | H -0.162 ± 0.081 | Q -0.084 ± 0.05 | K 0.074 ± 0.053 | E -0.002 ± 0.042
N14: E -0.044 ± 0.036 | Q -0.01 ± 0.056 | M -0.016 ± 0.042 | W -0.203 ± 0.039 | A -0.038 ± 0.05 | C -0.027 ± 0.061 | D -0.089 ± 0.047 | T -0.001 ± 0.044 | Y -0.048 ± 0.065 | V -0.099 ± 0.043 | F -0.08 ± 0.063 | H 0.02 ± 0.066 | P -0.535 ± 0.062 | S 0.014 ± 0.046 | G -0.024 ± 0.045 | I -0.092 ± 0.065 | R 0.007 ± 0.029
S21: M -0.05 ± 0.045 | H 0.082 ± 0.062 | D -0.021 ± 0.035 | Y -0.12 ± 0.051 | G -0.039 ± 0.031 | T -0.028 ± 0.046 | V -0.032 ± 0.037 | A 0.001 ± 0.033 | E -0.084 ± 0.052 | W -0.125 ± 0.053 | I -0.045 ± 0.074 | N -0.006 ± 0.047 | L -0.037 ± 0.034 | Q -0.137 ± 0.062 | R -0.02 ± 0.036 | P -0.04 ± 0.042 | C -0.053 ± 0.049 | K 0.002 ± 0.056 | F -0.117 ± 0.058
M7: K -0.139 ± 0.06 | N -0.088 ± 0.067 | D 0.007 ± 0.06 | I 0.002 ± 0.041 | P -0.897 ± 0.088 | A -0.078 ± 0.038 | C -0.02 ± 0.055 | F -0.168 ± 0.072 | S 0.029 ± 0.032 | Q -0.049 ± 0.053 | W -0.188 ± 0.043 | V -0.065 ± 0.045 | E -0.057 ± 0.053 | Y -0.036 ± 0.052 | G -0.081 ± 0.028 | R -0.115 ± 0.039
A11: G -0.03 ± 0.03 | Y -0.111 ± 0.063 | C -0.048 ± 0.056 | L -0.064 ± 0.031 | D 0.007 ± 0.042 | K 0.013 ± 0.051 | T -0.041 ± 0.047 | E 0.025 ± 0.052 | H 0.042 ± 0.042 | F -0.055 ± 0.037 | R -0.01 ± 0.04 | W -0.117 ± 0.049 | V -0.072 ± 0.03 | P -0.069 ± 0.038 | Q -0.003 ± 0.052 | S -0.007 ± 0.027 | N -0.016 ± 0.054 | M -0.053 ± 0.057
E15: C -0.048 ± 0.031 | K -0.048 ± 0.059 | H 0 ± 0.068 | F -0.12 ± 0.06 | W -0.141 ± 0.047 | N -0.123 ± 0.069 | T 0.033 ± 0.049 | Y -0.002 ± 0.06 | P 0.011 ± 0.036 | I -0.076 ± 0.054 | A -0.03 ± 0.036 | V -0.014 ± 0.045 | G -0.006 ± 0.034 | S -0.01 ± 0.039 | M -0.083 ± 0.061 | R -0.037 ± 0.03
A12: L -0.578 ± 0.049 | I -0.469 ± 0.08 | N 0.052 ± 0.074 | G -0.068 ± 0.041 | W -0.685 ± 0.098 | D -0.503 ± 0.12 | T -0.038 ± 0.035 | P -0.144 ± 0.046 | Q -0.046 ± 0.051 | S -0.056 ± 0.035 | Y -0.455 ± 0.045 | F -0.663 ± 0.11 | K -0.012 ± 0.072 | M -0.129 ± 0.033 | V -0.334 ± 0.042 | E -0.172 ± 0.062 | H -0.221 ± 0.07 | C -0.115 ± 0.05
D9: S -0.069 ± 0.027 | A 0.019 ± 0.045 | C -0.189 ± 0.049 | Q -0.133 ± 0.062 | M -0.177 ± 0.065 | Y -0.371 ± 0.063 | T -0.084 ± 0.051 | N -0.039 ± 0.034 | P -0.098 ± 0.059 | E -0.117 ± 0.046 | H -0.025 ± 0.059 | W -0.383 ± 0.048 | F -0.364 ± 0.04 | G -0.061 ± 0.03 | R -0.131 ± 0.029 | V -0.38 ± 0.04 | I -0.594 ± 0.085 | K -0.189 ± 0.062 | L -0.571 ± 0.05
